This is an account of results in patent US20120252718.

The target of this series is cytochrome c (UniProt P62894). Conditions: Cy3 fluorescence quenching, hyperbolic fit; cytochrome c source for this assay not stated.
Sequence of cytochrome c (P62894 2-105): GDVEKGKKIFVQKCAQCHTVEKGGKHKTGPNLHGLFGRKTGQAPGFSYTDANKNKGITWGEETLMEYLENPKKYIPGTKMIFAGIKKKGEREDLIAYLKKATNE

Usually Kd stands for the concentration at which binding is half-saturated. tRNACys 5'-Cy3 returned a Kd of 3.5 µM. In other words, the single-digit micromolar range.
